According to publication PMC7048138:

Target: microtubules of Xenopus S3 cells stably expressing EGFP-α-tubulin (Xenopus laevis (endogenous in S3 cells); cDNA of the EGFP-tagged copy not stated | Xenopus laevis (endogenous in S3 cells))
Test: fluorescence molecule counting on microtubules in cells

B1: mCherryFP-TgDCX (full-length wild-type TgDCX, mCherryFP at the N-terminus) (natural protein)
chain: MACGIPWKLARRDELMATRQAERPGEYFPPPYPPCPPTVVTPLRTSAYDFPEATFVTRPCLPAKKATGHKNVFERLTDTAYYTGSHRERFDEFGNGRGIAGREYLYAYDGLTESPSRCHEVYSSVIKRPRKPVVTPGTLGIQRFGVQIPAPRLMWLYRNGDKHDDGTPFFVRPYIKSMESLYQQITKEITPIAGPVRRIFDQNFRVITDLDDIVDGAKYLCTSGEPPAAYDRLEKFLSEWVIQKSQTKVPSQFFVV
DCX molecules per micron (short, smoothly curved microtubule arcs) (molecules per micron): 4850
TgDCX molecules per micron of fiber length ("flexible" microtubules) (molecules per micron): 1460
stoichiometry N (TgDCX molecules per tubulin dimer): 0.9
